Measurements: US20080112961A1 (MacroGenics, published 2008)

T1: FcγRIIB (form not stated) (UniProt P31994 43-217, limits assumed)
T1 construct: also called FcγRIIB (ELISA)
T1 sequence (looked up): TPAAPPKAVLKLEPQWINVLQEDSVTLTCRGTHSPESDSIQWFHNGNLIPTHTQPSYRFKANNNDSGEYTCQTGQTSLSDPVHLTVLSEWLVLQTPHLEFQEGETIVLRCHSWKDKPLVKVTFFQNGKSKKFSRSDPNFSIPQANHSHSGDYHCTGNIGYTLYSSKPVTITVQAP

B1: ch4-4-20 A231V, Q386H, V412M (antibody)
heavy: ASTKGPSVFPLAPSSKSTSGGTAALGCLVKDYFPEPVTVSWNSGALTSGVHTFPAVLQSSGLYSLSSVVTVPSSSLGTQTYICNVNHKPSNTKVDKKVEPKSCDKTHTCPPCPVPELLGGPSVFLFPPKPKDTLMISRTPEVTCVVVDVSHEDPEVKFNWYVDGVEVHNAKTKPREEQYNSTYRVVSVLTVLHQDWLNGKEYKCKVSNKALPAPIEKTISKAKGQPREPQVYTLPPSRDELTKNQVSLTCLVKGFYPSDIAVEWESNGHPENNYKTTPPVLDSDGSFFLYSKLTMDKSRWQQGNVFSCSVMHEALHNHYTQKSLSLSPGK
B2: ch4-4-20 K334E, E380D, G446V (antibody)
heavy: ASTKGPSVFPLAPSSKSTSGGTAALGCLVKDYFPEPVTVSWNSGALTSGVHTFPAVLQSSGLYSLSSVVTVPSSSLGTQTYICNVNHKPSNTKVDKKVEPKSCDKTHTCPPCPAPELLGGPSVFLFPPKPKDTLMISRTPEVTCVVVDVSHEDPEVKFNWYVDGVEVHNAKTKPREEQYNSTYRVVSVLTVLHQDWLNGKEYKCKVSNKALPAPIEETISKAKGQPREPQVYTLPPSRDELTKNQVSLTCLVKGFYPSDIAVDWESNGQPENNYKTTPPVLDSDGSFFLYSKLTVDKSRWQQGNVFSCSVMHEALHNHYTQKSLSLSPVK
B3: ch4-4-20 D221Y, M252I, A330G, A339T, T359N, V422I, H433L (antibody)
heavy: ASTKGPSVFPLAPSSKSTSGGTAALGCLVKDYFPEPVTVSWNSGALTSGVHTFPAVLQSSGLYSLSSVVTVPSSSLGTQTYICNVNHKPSNTKVDKKVEPKSCYKTHTCPPCPAPELLGGPSVFLFPPKPKDTLIISRTPEVTCVVVDVSHEDPEVKFNWYVDGVEVHNAKTKPREEQYNSTYRVVSVLTVLHQDWLNGKEYKCKVSNKALPGPIEKTISKTKGQPREPQVYTLPPSRDELNKNQVSLTCLVKGFYPSDIAVEWESNGQPENNYKTTPPVLDSDGSFFLYSKLTVDKSRWQQGNIFSCSVMHEALLNHYTQKSLSLSPGK
B4: ch4-4-20 K246I, Q362H, K370E (antibody)
heavy: ASTKGPSVFPLAPSSKSTSGGTAALGCLVKDYFPEPVTVSWNSGALTSGVHTFPAVLQSSGLYSLSSVVTVPSSSLGTQTYICNVNHKPSNTKVDKKVEPKSCDKTHTCPPCPAPELLGGPSVFLFPPIPKDTLMISRTPEVTCVVVDVSHEDPEVKFNWYVDGVEVHNAKTKPREEQYNSTYRVVSVLTVLHQDWLNGKEYKCKVSNKALPAPIEKTISKAKGQPREPQVYTLPPSRDELTKNHVSLTCLVEGFYPSDIAVEWESNGQPENNYKTTPPVLDSDGSFFLYSKLTVDKSRWQQGNVFSCSVMHEALHNHYTQKSLSLSPGK
B5: ch4-4-20 V303I, V369F, M428L (antibody)
heavy: ASTKGPSVFPLAPSSKSTSGGTAALGCLVKDYFPEPVTVSWNSGALTSGVHTFPAVLQSSGLYSLSSVVTVPSSSLGTQTYICNVNHKPSNTKVDKKVEPKSCDKTHTCPPCPAPELLGGPSVFLFPPKPKDTLMISRTPEVTCVVVDVSHEDPEVKFNWYVDGVEVHNAKTKPREEQYNSTYRVISVLTVLHQDWLNGKEYKCKVSNKALPAPIEKTISKAKGQPREPQVYTLPPSRDELTKNQVSLTCLFKGFYPSDIAVEWESNGQPENNYKTTPPVLDSDGSFFLYSKLTVDKSRWQQGNVFSCSVLHEALHNHYTQKSLSLSPGK
B6: ch4-4-20 P244A, K326I, C367R, S375I, K447T (antibody)
heavy: ASTKGPSVFPLAPSSKSTSGGTAALGCLVKDYFPEPVTVSWNSGALTSGVHTFPAVLQSSGLYSLSSVVTVPSSSLGTQTYICNVNHKPSNTKVDKKVEPKSCDKTHTCPPCPAPELLGGPSVFLFAPKPKDTLMISRTPEVTCVVVDVSHEDPEVKFNWYVDGVEVHNAKTKPREEQYNSTYRVVSVLTVLHQDWLNGKEYKCKVSNIALPAPIEKTISKAKGQPREPQVYTLPPSRDELTKNQVSLTRLVKGFYPIDIAVEWESNGQPENNYKTTPPVLDSDGSFFLYSKLTVDKSRWQQGNVFSCSVMHEALHNHYTQKSLSLSPGT
B7: ch4-4-20 E269K, K290N, Q311R, H433Y (antibody)
heavy: ASTKGPSVFPLAPSSKSTSGGTAALGCLVKDYFPEPVTVSWNSGALTSGVHTFPAVLQSSGLYSLSSVVTVPSSSLGTQTYICNVNHKPSNTKVDKKVEPKSCDKTHTCPPCPAPELLGGPSVFLFPPKPKDTLMISRTPEVTCVVVDVSHKDPEVKFNWYVDGVEVHNAKTNPREEQYNSTYRVVSVLTVLHRDWLNGKEYKCKVSNKALPAPIEKTISKAKGQPREPQVYTLPPSRDELTKNQVSLTCLVKGFYPSDIAVEWESNGQPENNYKTTPPVLDSDGSFFLYSKLTVDKSRWQQGNVFSCSVMHEALYNHYTQKSLSLSPGK
B8: ch4-4-20 F243L, V305I, A378D, F404S, P396L (antibody)
heavy: ASTKGPSVFPLAPSSKSTSGGTAALGCLVKDYFPEPVTVSWNSGALTSGVHTFPAVLQSSGLYSLSSVVTVPSSSLGTQTYICNVNHKPSNTKVDKKVEPKSCDKTHTCPPCPAPELLGGPSVFLLPPKPKDTLMISRTPEVTCVVVDVSHEDPEVKFNWYVDGVEVHNAKTKPREEQYNSTYRVVSILTVLHQDWLNGKEYKCKVSNKALPAPIEKTISKAKGQPREPQVYTLPPSRDELTKNQVSLTCLVKGFYPSDIDVEWESNGQPENNYKTTPLVLDSDGSSFLYSKLTVDKSRWQQGNVFSCSVMHEALHNHYTQKSLSLSPGK
notes: also called MgFc54
B9: ch4-4-20 K246E, V284M, V308A (antibody)
heavy: ASTKGPSVFPLAPSSKSTSGGTAALGCLVKDYFPEPVTVSWNSGALTSGVHTFPAVLQSSGLYSLSSVVTVPSSSLGTQTYICNVNHKPSNTKVDKKVEPKSCDKTHTCPPCPAPELLGGPSVFLFPPEPKDTLMISRTPEVTCVVVDVSHEDPEVKFNWYVDGVEMHNAKTKPREEQYNSTYRVVSVLTALHQDWLNGKEYKCKVSNKALPAPIEKTISKAKGQPREPQVYTLPPSRDELTKNQVSLTCLVKGFYPSDIAVEWESNGQPENNYKTTPPVLDSDGSFFLYSKLTVDKSRWQQGNVFSCSVMHEALHNHYTQKSLSLSPGK
B10: ch4-4-20 P291S, K288E, H268L, A141V (antibody)
heavy: ASTKGPSVFPLAPSSKSTSGGTAVLGCLVKDYFPEPVTVSWNSGALTSGVHTFPAVLQSSGLYSLSSVVTVPSSSLGTQTYICNVNHKPSNTKVDKKVEPKSCDKTHTCPPCPAPELLGGPSVFLFPPKPKDTLMISRTPEVTCVVVDVSLEDPEVKFNWYVDGVEVHNAETKSREEQYNSTYRVVSVLTVLHQDWLNGKEYKCKVSNKALPAPIEKTISKAKGQPREPQVYTLPPSRDELTKNQVSLTCLVKGFYPSDIAVEWESNGQPENNYKTTPPVLDSDGSFFLYSKLTVDKSRWQQGNVFSCSVMHEALHNHYTQKSLSLSPGK
B11: ch4-4-20 D280E, S354F, A431D, L441I (antibody)
heavy: ASTKGPSVFPLAPSSKSTSGGTAALGCLVKDYFPEPVTVSWNSGALTSGVHTFPAVLQSSGLYSLSSVVTVPSSSLGTQTYICNVNHKPSNTKVDKKVEPKSCDKTHTCPPCPAPELLGGPSVFLFPPKPKDTLMISRTPEVTCVVVDVSHEDPEVKFNWYVEGVEVHNAKTKPREEQYNSTYRVVSVLTVLHQDWLNGKEYKCKVSNKALPAPIEKTISKAKGQPREPQVYTLPPFRDELTKNQVSLTCLVKGFYPSDIAVEWESNGQPENNYKTTPPVLDSDGSFFLYSKLTVDKSRWQQGNVFSCSVMHEDLHNHYTQKSISLSPGK
B12: ch4-4-20 F243L, R255L, E318K (antibody)
heavy: ASTKGPSVFPLAPSSKSTSGGTAALGCLVKDYFPEPVTVSWNSGALTSGVHTFPAVLQSSGLYSLSSVVTVPSSSLGTQTYICNVNHKPSNTKVDKKVEPKSCDKTHTCPPCPAPELLGGPSVFLLPPKPKDTLMISLTPEVTCVVVDVSHEDPEVKFNWYVDGVEVHNAKTKPREEQYNSTYRVVSVLTVLHQDWLNGKKYKCKVSNKALPAPIEKTISKAKGQPREPQVYTLPPSRDELTKNQVSLTCLVKGFYPSDIAVEWESNGQPENNYKTTPPVLDSDGSFFLYSKLTVDKSRWQQGNVFSCSVMHEALHNHYTQKSLSLSPGK
B13: ch4-4-20 C229Y, A287T, V379M, P396L, L443V (antibody)
heavy: ASTKGPSVFPLAPSSKSTSGGTAALGCLVKDYFPEPVTVSWNSGALTSGVHTFPAVLQSSGLYSLSSVVTVPSSSLGTQTYICNVNHKPSNTKVDKKVEPKSCDKTHTCPPYPAPELLGGPSVFLFPPKPKDTLMISRTPEVTCVVVDVSHEDPEVKFNWYVDGVEVHNTKTKPREEQYNSTYRVVSVLTVLHQDWLNGKEYKCKVSNKALPAPIEKTISKAKGQPREPQVYTLPPSRDELTKNQVSLTCLVKGFYPSDIAMEWESNGQPENNYKTTPLVLDSDGSFFLYSKLTVDKSRWQQGNVFSCSVMHEALHNHYTQKSLSVSPGK
B14: ch4-4-20 A378V, N390I, V422I (antibody)
heavy: ASTKGPSVFPLAPSSKSTSGGTAALGCLVKDYFPEPVTVSWNSGALTSGVHTFPAVLQSSGLYSLSSVVTVPSSSLGTQTYICNVNHKPSNTKVDKKVEPKSCDKTHTCPPCPAPELLGGPSVFLFPPKPKDTLMISRTPEVTCVVVDVSHEDPEVKFNWYVDGVEVHNAKTKPREEQYNSTYRVVSVLTVLHQDWLNGKEYKCKVSNKALPAPIEKTISKAKGQPREPQVYTLPPSRDELTKNQVSLTCLVKGFYPSDIVVEWESNGQPENIYKTTPPVLDSDGSFFLYSKLTVDKSRWQQGNIFSCSVMHEALHNHYTQKSLSLSPGK
B15: ch4-4-20 K317N, F423-deleted (antibody)
chain: EPKSCDKTHTCPPCPAPELLGGPSVFLFPPKPKDTLMISRTPEVTCVVVDVSHEDPEVKFNWYVDGVEVHNAKTKPREEQYNSTYRVVSVLTVLHQDWLNGNEYKCKVSNKALPAPIEKTISKAKGQPREPQVYTLPPSREEMTKNQVSLTCLVKGFYPSDIAVEWESNGQPENNYKTTPPVLDSDGSFFLYSKLTVDKSRWQQGNVSCSVMHEALHNHYTQKSLSLSPGK
B16: ch4-4-20 T215P, K274N, A287G, K334N, L365V, P396L (antibody)
chain: PEPKSCDKTHTCPPCPAPELLGGPSVFLFPPKPKDTLMISRTPEVTCVVVDVSHEDPEVNFNWYVDGVEVHNGKTKPREEQYNSTYRVVSVLTVLHQDWLNGKEYKCKVSNKALPAPIENTISKAKGQPREPQVYTLPPSRDELTKNQVSVTCLVKGFYPSDIAVEWESNGQPENNYKTTPLVLDSDGSFFLYSKLTVDKSRWQQGNVFSCSVMHEALHNHYTQKSLSLSPGK

How the values were obtained:
[1] = target: T2, FcγRIIIA (form not stated) (UniProt P08637 17-208, limits assumed); assay: ELISA
T2 construct: also called FcγRIIIA (ELISA)

[2] = target: T1, FcγRIIB (form not stated); assay: ELISA

T2 sequence (P08637 17-208 F176V limits assumed, form in doubt): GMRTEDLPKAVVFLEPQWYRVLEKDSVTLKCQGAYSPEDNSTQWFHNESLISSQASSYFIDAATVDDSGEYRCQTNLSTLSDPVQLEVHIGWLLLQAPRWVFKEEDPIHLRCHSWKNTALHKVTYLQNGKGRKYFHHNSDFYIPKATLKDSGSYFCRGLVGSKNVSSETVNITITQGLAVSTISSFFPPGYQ

Binder	fold increase vs WT [1]	fold increase vs WT [2]	binding result [2]	further results
B1	1.5 x	6 x	–	–
B2	–	–	no binding	–
B3	2.5 x	6 x	–	–
B4	–	–	–	fold decrease vs WT [2]: 0.5 x
B5	–	–	no binding	–
B6	–	3 x	–	–
B7	–	–	no binding	–
B8	1.6 x	5.4 x	–	–
B9	–	–	no binding	–
B10	–	–	–	fold decrease vs WT [1]: 0.5 x
B11	3 x	–	binds	–
B12	1 x	–	–	–
B13	–	10 x	–	–
B14	0.5 x	5 x	–	–
B15	–	7 x	–	–
B16	–	4 x	–	–
